Measurements taken from patent US20100150906A1 (AC IMMUNE S A, published 2010).
Where “and” joins values, the source holds several entries; their conditions need not be identical. Equal entries are not always repeated. No end group written: not given here.

What was measured:
[1] = molecular target: T1, peptide p13-21 G21 of the third library (A21 to glycine) (also: biotinylated, position not given here); test: ELISA on third peptide library, antibody at 10 µg/ml
T1 peptide: HHQKLVFFG
Experimental: (§1) Epitope mapping of the monoclonal antibody mACI-01-Ab7 C2 was performed by ELISA using three different peptide libraries. One library comprises a total of 33 biotinylated peptides covering the complete amino acid (aa) sequence of Aβ1-42 (produced by Mimotopes and purchased from ANAWA Trading SA), the second library contains biotinylated peptides using peptide 12 (aa12-20 of Aβ) from the first peptide library and substituting each amino acid in the sequence by an alanine (see […] below), and the third library contains biotinylated peptides 13, 14, or 15 (aa 13-21, 14-22 or 15-23 of Aβ) and substituting in each case the last amino acids to an alanine or to a glycine for aa 21 which is already an alanine (see table 5 below). A biotinylated complete Aβ1-42 peptide was used as positive control (Bachem). Epitope mapping was done according to the manufacturer's (Mimotopes) instructions. Briefly, Streptavidin coated plates (NUNC) were blocked with 0.1% BSA in PBS overnight at 4° C. After washing with PBS-0.05% Tween 20, plates were coated for 1 hour at RT with the different peptides from the library, diluted in 0.1% BSA, 0.1% Sodium Azide in PBS to a final concentration of 10 μM. After washing, plates were incubated for 1 hour at RT with the mACI-01-Ab7 C2 antibody or an isotype control mouse IgG2b antibody, diluted to 10 μg/ml in 2% BSA, 0.1% Sodium Azide in PBS. Plates were washed again and incubated with alkaline phosphatase conjugated goat anti mouse IgG for 1 h at RT.

[2] = molecular target: T2, peptide p14-22 A22 of the third library (E22 to alanine) (also: biotinylated, position not given here); test: as above
T2 peptide: HQKLVFFAA
Experimental: as §1

[3] = molecular target: T3, peptide p15-23 A23 of the third library (D23 to alanine) (also: biotinylated, position not given here); test: as above
T3 peptide: QKLVFFAEA
Experimental: as §1

[4] = molecular target: T4, amyloid beta 1-42 monomers (UniProt P05067 672-713); test: ELISA on coated amyloid (55 µg/ml); mC2 at 0.625 ug/ml
T4 construct: domain: amyloid beta 1-42; also called Aβ1-42 monomers; amyloid monomers
Experimental: (§2) In order to evaluate the specificity of mC2 to different stages of polymerized amyloid protein, monomeric, polymeric soluble and fibrillic amyloid, an ELISA coated with these different stages of polymeric beta-amyloid was performed (FIG. 9). Monomers were prepared according to a modified method published by (Klein, 2002), soluble polymeric amyloid beta according to (Barghorn et al., 2005), whereas fibers were performed by incubation of amyloid (Bachem, Switzerland) with a final concentration of 1 μg/μl in Tris/HCl pH 7.4 at 37° C. for 5 days followed by a centrifugation step (10,000 rpm for 5 minutes). Then amyloid polymers were coated on an ELISA plates with a final concentration of 55 μg/ml and binding affinity ELISA by using an anti-mouse IgG monoclonal antibody (Jackson) labelled with alkaline phosphate was performed.

amyloid beta 1-42 fibers [5] = molecular target: T5, amyloid beta 1-42 fibers (UniProt P05067 672-713); test: as above
T5 construct: domain: amyloid beta 1-42; Many copies per fiber; also called Aβ1-42 fibers; fibrillar Aβ1-42
Experimental: as §2

[6] = molecular target: T6, soluble polymeric amyloid beta (oligomers) (UniProt P05067 672-713); test: as above
T6 construct: domain: amyloid beta 1-42; also called amyloid oligomers; Abeta oligomer
Experimental: as §2

[7] = molecular target: T7, biotinylated complete Aβ1-42 peptide (Bachem) (UniProt P05067 672-713, biotinylated (position not given)); test: SPR (Biacore X), biotinylated monomeric Aβ1-42 on SA chip, 1:1 fit
T7 construct: domain: amyloid beta 1-42; also called Amyloid beta 1-42; whole Aβ1-42 protein
Experimental: (§3) The interactions between AC immune's lead antibody mACI-01-Ab7 C2 (mC2) with amyloid peptide Aβ₁₋₄₂ was studies using surface plasmon resonance. The binding of the mouse antibody mACI-01-Ab7 C2 to either monomers or fibers of Aβ₁₋₄₂ were determined.
(§4) All SPR experiments were carried out on a Biacore X instrument (Biacore AB). Reagents for immobilization (EDC, NHS and ethanolamine), sensor chips CM5 and SA as well as running and sample buffer HBS-EP were purchased from Biacore AB. Sodium acetate (10 mM, pH 5.0) was used as coupling buffer to increase coupling yield. Fibrillar Aβ₁₋₄₂ (BAchem) was prepared by adding PBS buffer to Aβ₁₋₄₂ to a final concentration of 3 mg/ml and leaving the vials at 37° C. for 7 days. Fibrillar Aβ₁₋₄₂ was coupled to a CM5 sensor chip containing a surface-bound carboxymethyl dextran matrix. Biotinylated monomeric Aβ₁₋₄₂ (Bachem) was coupled to a Sensor chip SA consisting of carboxymethyl dextran matrix with covalently attached Streptavidin. Typically four or five concentrations of mAb were assayed by serial dilutions using running buffer. Injections were performed starting from the lowest concentration and were passed over both fc 1 and 2 at a flow rate of 30 μL'min for 3 min. Flow cell 2 was underivatised and responses were subtracted from fc 1 to correct for instrument noise and bulk refractive changes. After injection was finished, the surfaces were washed immediately with running buffer for 5 min. To remove remaining bound antibody from the Aβ₁₋₄₂ fibrils, surface regeneration was performed by injecting pulses of 10 mM NaOH. Kinetic analysis was performed using algorithms for numerical integration and global analysis using BIAevaluation 3.0. The curves obtained for injections of analyte at different concentrations were overlaid and the baselines adjusted to zero. For curve fitting, all data were fit simultaneously to a 1:1 homogeneous complex.

amyloid beta 1-42 fibers [8] = molecular target: T5, amyloid beta 1-42 fibers; test: SPR (Biacore X), fibrillar Aβ1-42 on CM5 chip, average of experiments
Experimental: as §3, §4

[9] = molecular target: T4, amyloid beta 1-42 monomers; test: SPR (BIACORE), Aβ1-42 monomers immobilized on CM5 chip, antibody 0.05-1.0 µM; monomers immobilized on a CM5 chip
Experimental: BIACORE® technology utilizes changes in the refractive index at the surface layer upon binding of the antibody to the antigen immobilized on the layer. Binding is detected by surface plasmon resonance (SPR) of laser light refracting from the surface. Analysis of the signal kinetics on rate and off rate allows the discrimination between non-specific and specific interaction. The concentration of antibody used was in the range of 0.05 μM to 1.0 μM.

T7 sequence (P05067 672-713 limits assumed): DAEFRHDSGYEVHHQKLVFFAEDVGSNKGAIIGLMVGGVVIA
T5 sequence (P05067 672-713 limits assumed): as above
T4 sequence (P05067 672-713 limits assumed): as above
T6 sequence (P05067 672-713 limits assumed): as above

binding result [1]: binds
binding result [2]: binds
binding result [3]: binds
O.D [4]: 1.16 O.D
O.D (amyloid beta 1-42 fibers [5]): 1.62 O.D
O.D [6]: 2.81 O.D
Kd [7]: 150 nM and 350 nM
koff [7]: 0.0027 s⁻¹ and 0.0053 s⁻¹
kon [7]: 18000 M⁻¹ s⁻¹ and 15000 M⁻¹ s⁻¹
Kd (amyloid beta 1-42 fibers [8]): 35 nM
koff (amyloid beta 1-42 fibers [8]): 0.0011 s⁻¹
kon (amyloid beta 1-42 fibers [8]): 38000 M⁻¹ s⁻¹
kon [9]: 18000 M⁻¹ s⁻¹
B1: mouse monoclonal antibody ACI-01-Ab7C2 (antibody, V domains shown)
VH: EVQLVESGGGLVQPGGSLKLSCAASGFTFSSYGMSWVRQTPDKRLELVASINSNGGSTYYPDSVKGRFTISRDNAKNTLYLQMSSLKSEDTAMYYCASGDYWGQGSTLTVSS
VL: DVVMTQTPLSLPVSLGDQASISCRSSQSLVYSNGDTYLHWYLQKPGQSPKLLIYKVSNRFSGVPDRFSGSGSGTDFTLKISRVEAEDLGVYFCSQSTHVPWTFGGGTKLEIK
notes: also called mC2; mACI-01-Ab7 C2
